The supplement of paper PMC10598134
± gives the standard deviation.

Assay: collision cross section of modified peptide (TIMS, N2, iRT-aligned); higher = larger / more extended gas-phase ion
Method: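 1/K0 was aligned run-wise to spiked iRT peptides and converted to CCS in N2 (Mason-Schamp). Values are the mean of 1-3 technical replicates for the most abundant feature at each charge state.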

[1] = charge state: 2, modification: Dimethyl (K)
[2] = charge state: 3, modification: Dimethyl (K)
[3] = charge state: 2, modification: Malonyl
[4] = charge state: 2, modification: Formyl
[5] = charge state: 2, modification: Propionyl
[6] = charge state: 2, modification: Glutarylation
[7] = charge state: 3, modification: Glutarylation
[8] = charge state: 2, modification: Butyryl
[9] = charge state: 3, modification: Butyryl
[10] = charge state: 2, modification: Acetyl (K)
[11] = charge state: 3, modification: Methyl (R)
[12] = charge state: 2, modification: Crotonyl
[13] = charge state: 2, modification: hydroxyisobutyryl
[14] = charge state: 2, modification: Trimethyl (K)
[15] = charge state: 3, modification: Trimethyl (K)

Substance: SEASSEFAKK [_SEASSEFAK(Dimethyl (K))K_]
- collision cross section [1]: 358.79 ± 0.58 Å²
- collision cross section [2]: 422.66 ± 2.8 Å²

Substance: VDIDAPDVSIEGPDAKLK [_VDIDAPDVSIEGPDAK(Malonyl)LK_]
- collision cross section [3]: 466.92 ± 1.2 Å²

Substance: SPSDSGYSYETIGKTTK [_SPSDSGYSYETIGK(Formyl)TTK_]
- collision cross section [4]: 446.06 ± 0.77 Å²
- collision cross section (charge state: 3, modification: Formyl): 518.69 ± 1.8 Å²

Substance: SKLLFSNTAAQK [_SK(GlyGly (K))LLFSNTAAQK_]
- collision cross section (charge state: 2, modification: GlyGly (K)): 396.71 ± 0.37 Å²
- collision cross section (charge state: 3, modification: GlyGly (K)): 447.27 ± 13 Å²

Substance: SSFAYKDQNENR [_SSFAYK(Propionyl)DQNENR_]
- collision cross section [5]: 401.75 ± 0.65 Å²
- collision cross section (charge state: 3, modification: Propionyl): 462.04 Å²

Substance: TPNLYIYSKK [_TPNLYIYSK(Formyl)K_]
- collision cross section [4]: 377.67 ± 0.9 Å²

Substance: TTGFYSGFSEVAEKR [_TTGFYSGFSEVAEK(Gluratylation)R_]
- collision cross section [6]: 443.45 ± 0.95 Å²
- collision cross section [7]: 517.64 Å²

Substance: KFGVLSDNFK [_K(Formyl)FGVLSDNFK_]
- collision cross section [4]: 368.1 ± 0.89 Å²

Substance: SKLLFSNTAAQK [_SK(Propionyl)LLFSNTAAQK_]
- collision cross section [5]: 398.2 ± 1.4 Å²

Substance: RLDINTNTYTSQDLK [_RLDINTNTYTS(HexNAc (ST))QDLK_]
- collision cross section (charge state: 3, modification: HexNAc (ST)): 511.61 ± 0.96 Å²

Substance: SDSGKPYYYNSQTK [_SDSGK(Succinyl)PYYYNSQTK_]
- collision cross section (charge state: 2, modification: Succinyl): 423.37 ± 1.1 Å²

Substance: LEKTIDDLEEK [_LEK(Formyl)TIDDLEEK_]
- collision cross section [4]: 399.8 ± 0.55 Å²

Substance: SPSDSGYSYETIGKTTK [_SPSDSGYSYETIGK(Butyryl)TTK_]
- collision cross section [8]: 455.62 ± 0.51 Å²
- collision cross section [9]: 527.5 ± 2.7 Å²

Substance: IQQELQTAKK [_IQQELQTAK(Dimethyl (K))K_]
- collision cross section [1]: 374.44 ± 1.1 Å²
- collision cross section [2]: 426.86 ± 2.1 Å²

Substance: DESFLGKLGGTLAR [_DESFLGK(Butyryl)LGGTLAR_]
- collision cross section [8]: 417.73 ± 0.53 Å²
- collision cross section [9]: 494.35 ± 3.3 Å²

Substance: HHTLRQAPQPQSSLQR [_HHTLR(Citrullination (R))QAPQPQSSLQR_]
- collision cross section (charge state: 3, modification: Citrullination (R)): 502.84 ± 0.41 Å²

Substance: SITHSTVGSKGEK [_SITHSTVGSK(Dimethyl (K))GEK_]
- collision cross section [1]: 401.87 ± 2.2 Å²
- collision cross section [2]: 464.51 ± 2.1 Å²

Substance: VFSIISSEKELK [_VFSIISSEK(Acetyl (K))ELK_]
- collision cross section [10]: 405.7 ± 0.9 Å²

Substance: YGRGQLNYPLPDFSK [_YGR(Methyl (R))GQLNYPLPDFSK_]
- collision cross section [11]: 496.04 ± 0.79 Å²

Substance: GFALVGVGSEASSKK [_GFALVGVGSEASSK(Methyl (K))K_]
- collision cross section (charge state: 2, modification: Methyl (K)): 437.53 ± 2.3 Å²
- collision cross section (charge state: 3, modification: Methyl (K)): 496.87 ± 4 Å²

Substance: IISSIEQKEENK [_IISSIEQK(Formyl)EENK_]
- collision cross section [4]: 398.84 ± 0.2 Å²

Substance: GSLEKGSPEDK [_GSLEK(Crotonyl)GSPEDK_]
- collision cross section [12]: 371.77 ± 0.26 Å²

Substance: IQQELQTAKK [_IQQELQTAK(hydroxyisobutyryl)K_]
- collision cross section [13]: 386.63 ± 0.81 Å²

Substance: VPTTEKPTVTVNFR [_VPTTEK(Malonyl)PTVTVNFR_]
- collision cross section [3]: 427.18 ± 3.1 Å²
- collision cross section (charge state: 3, modification: Malonyl): 511.14 ± 0.89 Å²

Substance: VNIGQGSHPQKVK [_VNIGQGSHPQK(Trimethyl (K))VK_]
- collision cross section [14]: 405.12 ± 1.9 Å²
- collision cross section [15]: 473.39 ± 2.7 Å²

Substance: DAEAAEATAEGALKAEK [_DAEAAEATAEGALK(Trimethyl (K))AEK_]
- collision cross section [14]: 469.97 ± 1 Å²
- collision cross section [15]: 535.87 ± 1.1 Å²

Substance: KYEEIDNAPEER [_K(Formyl)YEEIDNAPEER_]
- collision cross section [4]: 405.5 ± 0.74 Å²

Substance: AGPNASIISLKSDK [_AGPNASIISLK(hydroxyisobutyryl)SDK_]
- collision cross section [13]: 415.63 ± 0.53 Å²

Substance: VQFAPEK [_VQFAP(Hydroxyproline)EK_]
- collision cross section (charge state: 2, modification: Hydroxyproline): 316.39 ± 1.9 Å²

Substance: AGQKLIDVNHYAK [_AGQK(Acetyl (K))LIDVNHYAK_]
- collision cross section [10]: 429.91 ± 1.7 Å²
- collision cross section (charge state: 3, modification: Acetyl (K)): 479.89 ± 2.5 Å²

Substance: FDDTNPEKEEAK [_FDDTNPEK(Gluratylation)EEAK_]
- collision cross section [6]: 403.46 ± 1.1 Å²
- collision cross section [7]: 440.63 Å²

Substance: RGATPPAPPR [_R(Methyl (R))GATPPAPPR_]
- collision cross section (charge state: 2, modification: Methyl (R)): 338.68 ± 2.1 Å²
- collision cross section [11]: 463.88 ± 2.9 Å²

Substance: TQAYQDQKPGTSGLR [_TQAYQDQK(Crotonyl)PGTSGLR_]
- collision cross section [12]: 430.35 ± 3.2 Å²
- collision cross section (charge state: 3, modification: Crotonyl): 480.34 ± 2.8 Å²

Substance: LEQVEKELLR [_LEQVEK(Malonyl)ELLR_]
- collision cross section [3]: 382.93 ± 0.62 Å²
